Results reported in publication PMC2836939.
Where two headings read alike, the source gives them in different places.

Experiments:
Assay in all cases: EMSA
[1] = biological target: T1, Dmp1 (Dmtf1) (UniProt Q8CE22 1-761)
T1 sequence: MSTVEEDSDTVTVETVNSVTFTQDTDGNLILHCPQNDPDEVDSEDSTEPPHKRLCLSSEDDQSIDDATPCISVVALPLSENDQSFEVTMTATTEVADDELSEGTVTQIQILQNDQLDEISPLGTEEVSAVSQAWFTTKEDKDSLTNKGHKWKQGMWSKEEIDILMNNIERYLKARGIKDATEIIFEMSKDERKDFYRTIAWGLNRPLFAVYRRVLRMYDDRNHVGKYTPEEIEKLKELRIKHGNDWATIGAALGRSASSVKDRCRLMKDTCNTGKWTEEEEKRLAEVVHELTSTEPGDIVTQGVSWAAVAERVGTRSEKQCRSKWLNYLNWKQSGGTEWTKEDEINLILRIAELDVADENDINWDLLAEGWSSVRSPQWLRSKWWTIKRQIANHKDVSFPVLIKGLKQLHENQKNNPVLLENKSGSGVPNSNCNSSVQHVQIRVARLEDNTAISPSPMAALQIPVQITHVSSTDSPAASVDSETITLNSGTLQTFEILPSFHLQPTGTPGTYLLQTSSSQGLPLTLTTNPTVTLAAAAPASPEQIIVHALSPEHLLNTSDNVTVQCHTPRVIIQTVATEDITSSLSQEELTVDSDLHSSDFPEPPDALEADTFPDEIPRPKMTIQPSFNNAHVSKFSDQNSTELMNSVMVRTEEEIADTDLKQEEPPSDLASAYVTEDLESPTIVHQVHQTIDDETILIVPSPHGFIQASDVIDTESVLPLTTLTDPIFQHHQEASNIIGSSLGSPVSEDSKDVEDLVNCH

[2] = biological target: T1, Dmp1 (Dmtf1); remark: listed apart in the source
[3] = biological target: T1, Dmp1 (Dmtf1); remark: listed apart in the source
[4] = biological target: T1, Dmp1 (Dmtf1); remark: listed apart in the source
[5] = biological target: T1, Dmp1 (Dmtf1); remark: listed apart in the source

B1: Areg#1 (dsDNA)
DNA 1: TTTACCCCAGAACGGGATGGGGAGCAT
DNA 2: ATGCTCCCCATCCCGTTCTGGGGTAAA
- binding result [1]: binds

B2: Egr1#1 (dsDNA)
DNA 1: TTTAAAACGAAGGTGGAGGCGGATGGAGAGAGAGAGAGAGAG
DNA 2: CTCTCTCTCTCTCTCTCCATCCGCCTCCACCTTCGTTTTAAA
- binding result [2]: binds

B3: Tsp-1#1 (dsDNA)
DNA 1: TTTCAGAGCCTGCGTATGTTATAACG
DNA 2: CGTTATAACATACGCAGGCTCTGAAA
- binding result [3]: binds

B4: JunB#2 (control) (dsDNA)
DNA 1: TTTGAGCCCTGGGAGCCATCCGAGCGGCTTTCAACAGACC
DNA 2: GGTCTGTTGAAAGCCGCTCGGATGGCTCCCAGGGCTCAAA
- binding result [4]: no binding

B5: JunB#1 (dsDNA)
DNA 1: TTTTTTTCTTCCAAGCTGGGCGGATGGAGGGAGAAGATTG
DNA 2: CAATCTTCTCCCTCCATCCGCCCAGCTTGGAAGAAAAAAA
- binding result [4]: binds

B6: Areg#2 (dsDNA)
DNA 1: TTTGCTCAGGTGAGCATCCGCCACCTCTCAGG
DNA 2: CCTGAGAGGTGGCGGATGCTCACCTGAGCAAA
- binding result [5]: binds
